# ± gives the standard error. For some of these results: This sample holds only a part of the variants without activity.
# B1: glmS ribozyme (parent)
# chain: AUAAAAGCGCCAGAACUACAGAAAUGUAGUUGACGAGGAGGAGGUUUAUCGAAUUUUCGGCGGAUGCCUCCAAA
# Tests used:
# Settings in all cases: with glucosamine-6-phosphate
# [1] = variants of: B1; assay: kcat; higher = faster cleavage; RNA array
# Summary of the method: (§1)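 Tiles bearing barcoded ribozyme variants, transcribed in situ by E. coli RNA polymerase on sequenced MiSeq chips, were imaged over ~14 h at 37 °C using a hybridised Cy3 probe. Glucosamine-6-phosphate was supplied at 40 μM to 10 mM in HEPES/KCl/Mg(OAc)2 buffer. kobs came from one- or two-exponential decay fits to normalised per-tile medians, and weighted Michaelis–Menten fits then provided kcat and KM.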
# [2] = variants of: B1; assay: KM; higher = weaker cofactor use; RNA array
# Summary of the method: as §1
# [3] = variants of: B1; assay: self-cleavage kobs at 160 uM GlcN6P; higher = faster cleavage; RNA array
# Summary of the method: as §1
# [4] = variants of: B1; assay: self-cleavage kobs at 640 uM GlcN6P; higher = faster cleavage; RNA array
# Summary of the method: as §1
# [5] = variants of: B1; assay: self-cleavage kobs at 2500 uM GlcN6P; higher = faster cleavage; RNA array
# Summary of the method: as §1
# [6] = variants of: B1; assay: self-cleavage kobs at 10000 uM GlcN6P; higher = faster cleavage; RNA array
# Summary of the method: as §1
# [7] = variants of: B1; assay: self-cleavage kobs at 40 uM GlcN6P; higher = faster cleavage; RNA array
# Summary of the method: as §1
Variant,kcat [1],KM [2],self-cleavage kobs at 160 uM GlcN6P [3],self-cleavage kobs at 640 uM GlcN6P [4],self-cleavage kobs at 2500 uM GlcN6P [5],self-cleavage kobs at 10000 uM GlcN6P [6],self-cleavage kobs at 40 uM GlcN6P [7]
G66C C70G,0.000116 ± 4e-06 s⁻¹,490 ± 56 µM,3.35e-05 ± 1.2e-05 s⁻¹,6.38e-05 ± 8.2e-06 s⁻¹,9.88e-05 ± 1.2e-05 s⁻¹,0.000111 ± 1.5e-05 s⁻¹,–
A6C G7U A12U A15U,–,–,–,–,–,< 1e-05 s⁻¹,< 1e-05 s⁻¹
U55A C70G,0.000118 ± 1.5e-05 s⁻¹,–,0.000102 ± 1.2e-05 s⁻¹,0.000148 ± 1.6e-05 s⁻¹,0.000117 ± 1.2e-05 s⁻¹,0.000101 ± 9.9e-06 s⁻¹,3.74e-05 ± 7.5e-06 s⁻¹
A6G U31A G44U C67G,–,–,–,< 1e-05 s⁻¹,–,–,< 1e-05 s⁻¹
A6U C11G U46G C68A,–,–,–,< 1e-05 s⁻¹,< 1e-05 s⁻¹,–,< 1e-05 s⁻¹
G60U C67A C68U,< 1e-05 s⁻¹,–,–,< 1e-05 s⁻¹,–,< 1e-05 s⁻¹,–
U56G U65C,0.000622 ± 6.2e-05 s⁻¹,6800 ± 1000 µM,–,–,0.000169 ± 3.3e-05 s⁻¹,0.000366 ± 0.00011 s⁻¹,–
A6U A39C,–,–,–,–,–,–,< 1e-05 s⁻¹
A5U G40C,–,–,–,–,0.000574 ± 0.00021 s⁻¹,–,0.000123 ± 2.6e-05 s⁻¹
U56G G60A,2.37e-05 ± 6.7e-07 s⁻¹,623 ± 130 µM,–,–,–,2.25e-05 ± 1.1e-05 s⁻¹,< 1e-05 s⁻¹
A6G C8U U54G C68G,–,–,–,0.000705 ± 0.00028 s⁻¹,–,7.88e-05 ± 2.2e-05 s⁻¹,0.000149 ± 5.2e-05 s⁻¹
A6G U57C C70A C71U,–,–,< 1e-05 s⁻¹,–,–,–,< 1e-05 s⁻¹
U2C C11U G40A U45G,–,–,–,–,–,–,< 1e-05 s⁻¹
A6U G13C G63U A64G,–,–,–,–,–,–,< 1e-05 s⁻¹
A6G A14U U31C C50G,–,–,–,–,–,0.000265 ± 9.7e-05 s⁻¹,4.57e-05 ± 2.1e-05 s⁻¹
U57A G60U,< 1e-05 s⁻¹,–,< 1e-05 s⁻¹,< 1e-05 s⁻¹,–,< 1e-05 s⁻¹,< 1e-05 s⁻¹
A6U G35U A39G C71A,–,–,–,–,–,< 1e-05 s⁻¹,< 1e-05 s⁻¹
A64G G66U,0.00159 ± 7.8e-05 s⁻¹,1210 ± 120 µM,0.000178 ± 5.7e-05 s⁻¹,0.000588 ± 0.00016 s⁻¹,0.00102 ± 0.00034 s⁻¹,0.00143 ± 0.0003 s⁻¹,–
U57A C58G,7.04e-05 ± 3.8e-06 s⁻¹,4690 ± 580 µM,–,–,2.42e-05 ± 1.1e-05 s⁻¹,4.8e-05 ± 1.2e-05 s⁻¹,–
A6U A15U G63A C70U,–,–,–,–,–,–,< 1e-05 s⁻¹
G63U,< 1e-05 s⁻¹,–,< 1e-05 s⁻¹,–,< 1e-05 s⁻¹,< 1e-05 s⁻¹,< 1e-05 s⁻¹
G9U A48C C50G,–,92.6 ± 7.4 µM,–,–,–,–,–

Variant,kcat [1],KM [2],self-cleavage kobs at 160 uM GlcN6P [3],self-cleavage kobs at 640 uM GlcN6P [4],self-cleavage kobs at 2500 uM GlcN6P [5],self-cleavage kobs at 10000 uM GlcN6P [6],self-cleavage kobs at 40 uM GlcN6P [7]
A1C U56G,–,–,–,–,–,0.0185 ± 0.0058 s⁻¹,0.000433 ± 9.4e-05 s⁻¹
C67U C70G,2.32e-05 ± 6.8e-06 s⁻¹,–,–,2.59e-05 ± 9e-06 s⁻¹,2.88e-05 ± 6.7e-06 s⁻¹,–,–
A6G G29C U45G C70G,–,–,–,–,–,–,< 1e-05 s⁻¹
A6C G43U C67A,–,–,–,–,–,–,< 1e-05 s⁻¹
C58A C67U,0.000215 ± 1.7e-05 s⁻¹,1370 ± 290 µM,–,6.4e-05 ± 1e-05 s⁻¹,0.000161 ± 2e-05 s⁻¹,0.000182 ± 1.7e-05 s⁻¹,–
A6C C61U,–,–,< 1e-05 s⁻¹,–,–,< 1e-05 s⁻¹,< 1e-05 s⁻¹
U55G C71A,0.00224 ± 0.00065 s⁻¹,528 ± 220 µM,0.000541 ± 0.00013 s⁻¹,0.00113 ± 0.00015 s⁻¹,0.00315 ± 0.00085 s⁻¹,–,0.000162 ± 2.2e-05 s⁻¹
A15C G38U,–,67.7 ± 27 µM,–,–,–,–,–
U55A C68G,8.49e-05 ± 3.5e-06 s⁻¹,51.2 ± 14 µM,6.64e-05 ± 1e-05 s⁻¹,8.75e-05 ± 1.2e-05 s⁻¹,8.44e-05 ± 1.1e-05 s⁻¹,8.04e-05 ± 7.4e-06 s⁻¹,3.36e-05 ± 1e-05 s⁻¹
U57C C70U,0.00016 ± 1.8e-05 s⁻¹,741 ± 210 µM,2.63e-05 ± 8.9e-06 s⁻¹,7.23e-05 ± 9.1e-06 s⁻¹,0.000137 ± 1.3e-05 s⁻¹,0.000124 ± 2.4e-05 s⁻¹,–
A6G G13U,–,–,< 1e-05 s⁻¹,< 1e-05 s⁻¹,–,–,< 1e-05 s⁻¹
C58G G66U,1.05e-05 ± 2.2e-06 s⁻¹,–,< 1e-05 s⁻¹,–,–,–,–
A6G A15C C70A,–,–,–,–,–,–,< 1e-05 s⁻¹
U57C C67U,6.51e-05 ± 8.2e-06 s⁻¹,–,–,3.88e-05 ± 8.6e-06 s⁻¹,3.71e-05 ± 7.6e-06 s⁻¹,6.33e-05 ± 5.1e-06 s⁻¹,–
U56G C58U,0.000147 ± 7.7e-06 s⁻¹,6310 ± 710 µM,–,–,4.08e-05 ± 8.6e-06 s⁻¹,9.06e-05 ± 8e-06 s⁻¹,–
A6G U56A U65C,–,–,–,–,–,–,< 1e-05 s⁻¹
A6U C8A,–,–,< 1e-05 s⁻¹,–,< 1e-05 s⁻¹,< 1e-05 s⁻¹,< 1e-05 s⁻¹
C61U C67A,1.1e-05 ± 1.5e-06 s⁻¹,–,–,–,–,–,–
A6U G9U,–,–,< 1e-05 s⁻¹,< 1e-05 s⁻¹,< 1e-05 s⁻¹,–,< 1e-05 s⁻¹
G59A,8.71e-05 ± 2.2e-06 s⁻¹,1670 ± 170 µM,–,2.2e-05 ± 1.9e-06 s⁻¹,5.42e-05 ± 1.8e-06 s⁻¹,7.42e-05 ± 1.2e-06 s⁻¹,–
G59U,5.77e-05 ± 1.4e-06 s⁻¹,1210 ± 130 µM,–,1.83e-05 ± 1.7e-06 s⁻¹,4.03e-05 ± 1.3e-06 s⁻¹,5.11e-05 ± 9.9e-07 s⁻¹,< 1e-05 s⁻¹

# — the supplement of paper PMC7125110
